Measurements reported in patent publication US20250034267A1 (published 2025).

B1: IBIO-101-plant-afuc (SD-889825-PC-A; IBIO-101, c-105 plant Afucosylated) (antibody, human IgG1, kappa, V domains shown)
VH: QVQLVQSGAEVKKPGASLKISCKGSGYTFTDYAMHWVRQAPGQGLEWIGVISTYSGDAIYAQKFQGRATMTVDTSTSTAYLELSSLRSEDTAVYYCARGVTFDYWGQGTTVTVSS
VL: DIQMTQSPSSLSASVGDRVTITCRASQDISNYLEWYQQKPGKAPKLLVYNAKTLAEGVPSRFSGSGSGTDFTLTISSLQPEDFGTYYCQHHYDTPYTFGQGTKLEIKR
notes: Same antibody made in C105 deltaXT/FT N. benthamiana plants, glycans without fucose and xylose; also called RTX-003; hD11
B2: IBIO-101-CHO-afuc (SD-889825-CG-A; IBIO-101, CHO cells Afucosylated) (antibody, human IgG1, kappa, V domains shown)
VH: B1 VH
VL: B1 VL
notes: Same antibody made in CHO cells, afucosylated glycans; also called RTX-003; hD11
B3: IBIO-101-plant-WT (SD-889825-PW-A; IBIO-101, wild-type plant) (antibody, human IgG1, kappa, V domains shown)
VH: B1 VH
VL: B1 VL
notes: Same antibody made in wild-type Nicotiana benthamiana plants; also called RTX-003; hD11
B4: IBIO-101-CHO-WT (SD-889825-CW-A; IBIO-101, wild-type CHO cells) (antibody, human IgG1, kappa, V domains shown)
VH: B1 VH
VL: B1 VL
notes: The signal peptide is marked only by bold print (lost here); also called RTX-003; hD11

Key:
[1] = target: T1, CD25 (as used on the Carterra LSA) (Homo sapiens (Human), UniProt P01589 22-240); assay: Carterra LSA binding kinetics; KD SD 1.27 nM
T1 sequence: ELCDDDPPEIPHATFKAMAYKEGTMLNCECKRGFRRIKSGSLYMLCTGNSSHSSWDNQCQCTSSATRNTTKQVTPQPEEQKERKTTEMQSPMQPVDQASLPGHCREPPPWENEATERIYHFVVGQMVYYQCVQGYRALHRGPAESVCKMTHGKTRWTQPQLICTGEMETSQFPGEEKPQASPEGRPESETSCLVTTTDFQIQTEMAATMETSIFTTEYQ

[2] = target: T2, CD25 endogenously expressed on SUDHL-1 human lymphoma cell line and induced human Treg (iTreg) (human, UniProt P01589 22-272); assay: cell-based or functional assay
T2 sequence (looked up): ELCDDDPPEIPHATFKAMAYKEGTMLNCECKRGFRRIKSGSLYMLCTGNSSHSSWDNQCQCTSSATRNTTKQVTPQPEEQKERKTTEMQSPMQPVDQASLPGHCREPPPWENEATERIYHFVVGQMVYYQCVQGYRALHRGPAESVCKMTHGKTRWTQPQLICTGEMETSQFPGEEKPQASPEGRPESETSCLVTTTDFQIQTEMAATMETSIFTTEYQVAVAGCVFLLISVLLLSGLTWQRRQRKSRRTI

[3] = target: T2, CD25 endogenously expressed on SUDHL-1 …; assay: flow cytometry on SUDHL-1 cells; average of n>=6; SD 38.12
[4] = target: T2, CD25 endogenously expressed on SUDHL-1 …; assay: flow cytometry on iTreg cells; average of n=3; SD 83.94
[5] = target: T1, CD25 (as used on the Carterra LSA); assay: Carterra LSA binding kinetics
[6] = target: T3, human CD25 (Sino Biologicals, 10165-H08H) (human, UniProt P01589 22-213); assay: ELISA, plate coated with human CD25; average of n>=3; SD 3.2
T3 construct: Bought recombinant protein coated on ELISA plates; also called immobilized human CD25; IL2RA
T3 sequence (looked up): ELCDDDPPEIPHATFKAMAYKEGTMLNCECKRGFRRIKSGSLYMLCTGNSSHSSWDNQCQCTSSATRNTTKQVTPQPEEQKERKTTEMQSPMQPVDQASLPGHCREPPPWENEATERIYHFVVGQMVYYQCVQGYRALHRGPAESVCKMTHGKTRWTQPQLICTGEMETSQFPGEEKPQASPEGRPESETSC

[7] = target: T4, human IL2R on HEK blue human IL2R overexpressing cell line (human, UniProt P01589 22-272; P14784 27-551; P31785 23-369); assay: cell-based or functional assay
T4 sequence (looked up) 1: T2 sequence (looked up)
T4 sequence (looked up) 2: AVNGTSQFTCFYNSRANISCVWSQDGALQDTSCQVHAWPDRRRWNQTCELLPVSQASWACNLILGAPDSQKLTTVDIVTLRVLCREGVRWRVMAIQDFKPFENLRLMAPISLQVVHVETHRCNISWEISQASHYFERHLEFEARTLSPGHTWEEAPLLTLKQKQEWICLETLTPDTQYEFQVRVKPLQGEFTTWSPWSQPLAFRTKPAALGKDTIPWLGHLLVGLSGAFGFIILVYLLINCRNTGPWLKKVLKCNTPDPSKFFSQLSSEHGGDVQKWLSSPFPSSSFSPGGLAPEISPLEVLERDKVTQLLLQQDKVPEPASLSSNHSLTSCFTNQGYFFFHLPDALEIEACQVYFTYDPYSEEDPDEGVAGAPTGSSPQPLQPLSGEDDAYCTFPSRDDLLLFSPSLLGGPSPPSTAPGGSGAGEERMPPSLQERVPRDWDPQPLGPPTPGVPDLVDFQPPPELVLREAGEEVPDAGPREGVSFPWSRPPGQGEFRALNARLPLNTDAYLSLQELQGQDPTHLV
T4 sequence (looked up) 3: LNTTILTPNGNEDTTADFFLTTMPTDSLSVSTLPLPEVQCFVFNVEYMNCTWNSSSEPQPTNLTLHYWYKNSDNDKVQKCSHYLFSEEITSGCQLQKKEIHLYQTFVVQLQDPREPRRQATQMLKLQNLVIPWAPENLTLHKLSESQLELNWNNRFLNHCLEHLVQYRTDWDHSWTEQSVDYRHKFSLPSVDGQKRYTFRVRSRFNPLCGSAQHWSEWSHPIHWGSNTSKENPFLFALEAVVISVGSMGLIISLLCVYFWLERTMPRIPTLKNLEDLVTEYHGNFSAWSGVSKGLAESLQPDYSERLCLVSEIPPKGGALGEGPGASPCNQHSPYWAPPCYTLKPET

[8] = target: T5, cynomolgus CD25 (Sino Biologicals, 90265-C08H) (cynomolgus, UniProt H6WS54 22-240); assay: ELISA, plate coated with cynomolgus CD25; average of n>=3; SD 9.8
T5 construct: Bought recombinant protein coated on ELISA plates; also called cynos monkey CD25; immobilized cynomolgus CD25
T5 sequence: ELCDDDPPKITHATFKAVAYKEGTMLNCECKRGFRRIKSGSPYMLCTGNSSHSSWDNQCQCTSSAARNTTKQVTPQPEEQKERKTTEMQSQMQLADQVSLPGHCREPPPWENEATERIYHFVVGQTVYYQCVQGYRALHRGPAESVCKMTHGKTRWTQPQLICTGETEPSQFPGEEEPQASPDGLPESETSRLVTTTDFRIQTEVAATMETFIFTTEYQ

[9] = target: T2, CD25 endogenously expressed on SUDHL-1 …; assay: cell-based or functional assay; remark: listed apart in the source
[10] = target: T3, human CD25 (Sino Biologicals, …); assay: ELISA, plate coated with human CD25; average of n>=3; SD 2.5
[11] = target: T2, CD25 endogenously expressed on SUDHL-1 …; assay: flow cytometry on iTreg cells; average of n=3; SD 40.50
[12] = target: T2, CD25 endogenously expressed on SUDHL-1 …; assay: flow cytometry on SUDHL-1 cells; average of n>=6; SD 39.9
[13] = target: T5, cynomolgus CD25 (Sino Biologicals, …); assay: ELISA, plate coated with cynomolgus CD25; average of n>=3; SD 12.3
[14] = target: T1, CD25 (as used on the Carterra LSA); assay: Carterra LSA binding kinetics; KD SD 1.03 nM
[15] = target: T2, CD25 endogenously expressed on SUDHL-1 …; assay: flow cytometry on SUDHL-1 cells; average of n>=6; SD 39.71
[16] = target: T5, cynomolgus CD25 (Sino Biologicals, …); assay: ELISA, plate coated with cynomolgus CD25; average of n>=3; SD 8.8
[17] = target: T3, human CD25 (Sino Biologicals, …); assay: ELISA, plate coated with human CD25; average of n>=3; SD 3.3
[18] = target: T1, CD25 (as used on the Carterra LSA); assay: Carterra LSA binding kinetics; KD SD 0.69 nM
[19] = target: T2, CD25 endogenously expressed on SUDHL-1 …; assay: flow cytometry on iTreg cells; average of n=3; SD 63.88
[20] = target: T5, cynomolgus CD25 (Sino Biologicals, …); assay: ELISA, plate coated with cynomolgus CD25; average of n>=3; SD 19.5
[21] = target: T2, CD25 endogenously expressed on SUDHL-1 …; assay: flow cytometry on SUDHL-1 cells; average of n>=6; SD 26.2
[22] = target: T1, CD25 (as used on the Carterra LSA); assay: Carterra LSA binding kinetics; KD SD 0.37 nM
[23] = target: T2, CD25 endogenously expressed on SUDHL-1 …; assay: flow cytometry on iTreg cells; average of n=3; SD 44.59
[24] = target: T3, human CD25 (Sino Biologicals, …); assay: ELISA, plate coated with human CD25; average of n>=3; SD 4.9

| Binder | EC50, iTreg/NFAT CD16 ADCC reporter assay [2] [mg/L] | koff [5] [s⁻¹] | kon [5] [M⁻¹ s⁻¹] | EC50, IL-2 reporter HEK293 pSTAT5 assay (activation of STAT5 by IL2 in presence of the antibody) [7] [ng/ml] | EC50, SUDHL-1/NFAT CD16 ADCC reporter assay [9] [mg/L] | further results |
| --- | --- | --- | --- | --- | --- | --- |
| B1 | 0.00714 | 0.00207 | 492000 | 0.17 | 0.0089 | Kd [1]: 4.27 nM; EC50 [3]: 0.123 mg/L; EC50 [4]: 0.218 mg/L; EC50 [6]: 0.0174 mg/L; EC50 [8]: 0.0424 mg/L |
| B2 | 0.00471 | 0.00119 | 499000 | 0.17 | 0.0072 | EC50 [10]: 0.0156 mg/L; EC50 [11]: 0.219 mg/L; EC50 [12]: 0.126 mg/L; EC50 [13]: 0.0431 mg/L; Kd [14]: 3.9 nM |
| B3 | 0.0303 | 0.0012 | 485000 | 0.21 | 0.0325 | EC50 [15]: 0.126 mg/L; EC50 [16]: 0.0439 mg/L; EC50 [17]: 0.016 mg/L; Kd [18]: 4.2 nM; EC50 [19]: 0.235 mg/L |
| B4 | 0.0538 | 0.00192 | 471000 | 0.17 | 0.0845 | EC50 [20]: 0.0544 mg/L; EC50 [21]: 0.123 mg/L; Kd [22]: 4.1 nM; EC50 [23]: 0.223 mg/L; EC50 [24]: 0.0199 mg/L |
